In article PMC4360782, “A new high-performance heterologous fungal expression system based on regulatory elements from the Aspergillus terreus terrein gene cluster”:

Legend:
TerR43-138 [1] = biological target: T1, TerR43-138 (Aspergillus terreus SBUG844, UniProt Q0D1P5 43-138); test: SPR; molar ratio 0.88; SPR (Biacore 2000, SA-coated CM3 chip): 10 mM HEPES pH 7.4, 150 mM NaCl, 0.005% P20, 5 mM beta-mercaptoethanol, 1 uM ZnCl2, 25 C; protein 12.5-6400 nM; 1:1 model with mass transport; details: protein: recombinant; (pET-29a; mass used 10218 Da); label: biotin on one strand; 18 bp duplex
T1 sequence: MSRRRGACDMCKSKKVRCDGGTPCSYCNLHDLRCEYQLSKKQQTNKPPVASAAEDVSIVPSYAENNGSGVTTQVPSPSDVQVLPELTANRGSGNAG

TerR35-138 [2] = biological target: T2, TerR35-138 (Aspergillus terreus SBUG844, UniProt Q0D1P5 35-138); test: SPR; molar ratio 1.19; SPR (Biacore 2000, SA-coated CM3 chip): 10 mM HEPES pH 7.4, 150 mM NaCl, 0.005% P20, 5 mM beta-mercaptoethanol, 1 uM ZnCl2, 25 C; protein 12.5-6400 nM; 1:1 model with mass transport; details: protein: recombinant; (pET-29a; theoretical mass 11.35 kDa); label: biotin on one strand; 18 bp duplex
T2 sequence: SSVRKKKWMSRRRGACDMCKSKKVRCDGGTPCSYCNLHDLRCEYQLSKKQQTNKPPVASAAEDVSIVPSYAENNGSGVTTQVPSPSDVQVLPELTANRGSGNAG

TerR35-138 [3] = biological target: T2, TerR35-138; test: SPR; molar ratio 1.62; SPR (Biacore 2000, SA-coated CM3 chip): 10 mM HEPES pH 7.4, 150 mM NaCl, 0.005% P20, 5 mM beta-mercaptoethanol, 1 uM ZnCl2, 25 C; protein 12.5-6400 nM; 1:1 model with mass transport; details: protein: recombinant; (pET-29a; theoretical mass 11.35 kDa); label: biotin on one strand; 18 bp duplex
TerR43-138 [4] = biological target: T1, TerR43-138; test: SPR; molar ratio 1.04; SPR (Biacore 2000, SA-coated CM3 chip): 10 mM HEPES pH 7.4, 150 mM NaCl, 0.005% P20, 5 mM beta-mercaptoethanol, 1 uM ZnCl2, 25 C; protein 12.5-6400 nM; 1:1 model with mass transport; details: protein: recombinant; (pET-29a; mass used 10218 Da); label: biotin on one strand; 18 bp duplex
TerR35-138 [5] = biological target: T2, TerR35-138; test: SPR; molar ratio 1.93; SPR (Biacore 2000, SA-coated CM3 chip): 10 mM HEPES pH 7.4, 150 mM NaCl, 0.005% P20, 5 mM beta-mercaptoethanol, 1 uM ZnCl2, 25 C; protein 12.5-6400 nM; 1:1 model with mass transport; details: protein: recombinant; (pET-29a; theoretical mass 11.35 kDa); label: biotin on one strand; 18 bp duplex
TerR35-138 [6] = biological target: T2, TerR35-138; test: SPR; molar ratio 1.74; SPR (Biacore 2000, SA-coated CM3 chip): 10 mM HEPES pH 7.4, 150 mM NaCl, 0.005% P20, 5 mM beta-mercaptoethanol, 1 uM ZnCl2, 25 C; protein 12.5-6400 nM; 1:1 model with mass transport; details: protein: recombinant; (pET-29a; theoretical mass 11.35 kDa); label: biotin on one strand; 18 bp duplex
TerR43-138 [7] = biological target: T1, TerR43-138; test: SPR; molar ratio 0.95; SPR (Biacore 2000, SA-coated CM3 chip): 10 mM HEPES pH 7.4, 150 mM NaCl, 0.005% P20, 5 mM beta-mercaptoethanol, 1 uM ZnCl2, 25 C; protein 12.5-6400 nM; 1:1 model with mass transport; details: protein: recombinant; (pET-29a; mass used 10218 Da); label: biotin on one strand; 18 bp duplex
TerR35-138 [8] = biological target: T2, TerR35-138; test: SPR; molar ratio 1.38; SPR (Biacore 2000, SA-coated CM3 chip): 10 mM HEPES pH 7.4, 150 mM NaCl, 0.005% P20, 5 mM beta-mercaptoethanol, 1 uM ZnCl2, 25 C; protein 12.5-6400 nM; 1:1 model with mass transport; details: protein: recombinant; (pET-29a; theoretical mass 11.35 kDa); label: biotin on one strand; 18 bp duplex
TerR43-138 [9] = biological target: T1, TerR43-138; test: SPR; molar ratio 0.85; SPR (Biacore 2000, SA-coated CM3 chip): 10 mM HEPES pH 7.4, 150 mM NaCl, 0.005% P20, 5 mM beta-mercaptoethanol, 1 uM ZnCl2, 25 C; protein 12.5-6400 nM; 1:1 model with mass transport; details: protein: recombinant; (pET-29a; mass used 10218 Da); label: biotin on one strand; 18 bp duplex
TerR35-138 [10] = biological target: T2, TerR35-138; test: SPR; molar ratio 1.14; SPR (Biacore 2000, SA-coated CM3 chip): 10 mM HEPES pH 7.4, 150 mM NaCl, 0.005% P20, 5 mM beta-mercaptoethanol, 1 uM ZnCl2, 25 C; protein 12.5-6400 nM; 1:1 model with mass transport; details: protein: recombinant; (pET-29a; theoretical mass 11.35 kDa); label: biotin on one strand; 18 bp duplex
TerR35-138 [11] = biological target: T2, TerR35-138; test: SPR; molar ratio 1.25; SPR (Biacore 2000, SA-coated CM3 chip): 10 mM HEPES pH 7.4, 150 mM NaCl, 0.005% P20, 5 mM beta-mercaptoethanol, 1 uM ZnCl2, 25 C; protein 12.5-6400 nM; 1:1 model with mass transport; details: protein: recombinant; (pET-29a; theoretical mass 11.35 kDa); label: biotin on one strand; 18 bp duplex
TerR43-138 [12] = biological target: T1, TerR43-138; test: SPR; molar ratio 0.91; SPR (Biacore 2000, SA-coated CM3 chip): 10 mM HEPES pH 7.4, 150 mM NaCl, 0.005% P20, 5 mM beta-mercaptoethanol, 1 uM ZnCl2, 25 C; protein 12.5-6400 nM; 1:1 model with mass transport; details: protein: recombinant; (pET-29a; mass used 10218 Da); label: biotin on one strand; 18 bp duplex
TerR35-138 [13] = biological target: T2, TerR35-138; test: SPR; molar ratio 1.87; SPR (Biacore 2000, SA-coated CM3 chip): 10 mM HEPES pH 7.4, 150 mM NaCl, 0.005% P20, 5 mM beta-mercaptoethanol, 1 uM ZnCl2, 25 C; protein 12.5-6400 nM; 1:1 model with mass transport; details: protein: recombinant; (pET-29a; theoretical mass 11.35 kDa); label: biotin on one strand; 18 bp duplex
TerR35-138 [14] = biological target: T2, TerR35-138; test: SPR; molar ratio 0.95; SPR (Biacore 2000, SA-coated CM3 chip): 10 mM HEPES pH 7.4, 150 mM NaCl, 0.005% P20, 5 mM beta-mercaptoethanol, 1 uM ZnCl2, 25 C; protein 12.5-6400 nM; 1:1 model with mass transport; details: protein: recombinant; (pET-29a; theoretical mass 11.35 kDa); label: biotin on one strand; 18 bp duplex
TerR35-138 [15] = biological target: T2, TerR35-138; test: SPR; molar ratio 1.51; SPR (Biacore 2000, SA-coated CM3 chip): 10 mM HEPES pH 7.4, 150 mM NaCl, 0.005% P20, 5 mM beta-mercaptoethanol, 1 uM ZnCl2, 25 C; protein 12.5-6400 nM; 1:1 model with mass transport; details: protein: recombinant; (pET-29a; theoretical mass 11.35 kDa); label: biotin on one strand; 18 bp duplex
TerR43-138 [16] = biological target: T1, TerR43-138; test: SPR; molar ratio 0.92; SPR (Biacore 2000, SA-coated CM3 chip): 10 mM HEPES pH 7.4, 150 mM NaCl, 0.005% P20, 5 mM beta-mercaptoethanol, 1 uM ZnCl2, 25 C; protein 12.5-6400 nM; 1:1 model with mass transport; details: protein: recombinant; (pET-29a; mass used 10218 Da); label: biotin on one strand; 18 bp duplex
TerR43-138 [17] = biological target: T1, TerR43-138; test: SPR; molar ratio 1.06; SPR (Biacore 2000, SA-coated CM3 chip): 10 mM HEPES pH 7.4, 150 mM NaCl, 0.005% P20, 5 mM beta-mercaptoethanol, 1 uM ZnCl2, 25 C; protein 12.5-6400 nM; 1:1 model with mass transport; details: protein: recombinant; (pET-29a; mass used 10218 Da); label: biotin on one strand; 18 bp duplex
TerR35-138 [18] = biological target: T2, TerR35-138; test: SPR; molar ratio 1.17; SPR (Biacore 2000, SA-coated CM3 chip): 10 mM HEPES pH 7.4, 150 mM NaCl, 0.005% P20, 5 mM beta-mercaptoethanol, 1 uM ZnCl2, 25 C; protein 12.5-6400 nM; 1:1 model with mass transport; details: protein: recombinant; (pET-29a; theoretical mass 11.35 kDa); label: biotin on one strand; 18 bp duplex
TerR35-138 [19] = biological target: T2, TerR35-138; test: SPR; molar ratio 0.92; SPR (Biacore 2000, SA-coated CM3 chip): 10 mM HEPES pH 7.4, 150 mM NaCl, 0.005% P20, 5 mM beta-mercaptoethanol, 1 uM ZnCl2, 25 C; protein 12.5-6400 nM; 1:1 model with mass transport; details: protein: recombinant; (pET-29a; theoretical mass 11.35 kDa); label: biotin on one strand; 18 bp duplex
TerR35-138 [20] = biological target: T2, TerR35-138; test: SPR; molar ratio 1.12; SPR (Biacore 2000, SA-coated CM3 chip): 10 mM HEPES pH 7.4, 150 mM NaCl, 0.005% P20, 5 mM beta-mercaptoethanol, 1 uM ZnCl2, 25 C; protein 12.5-6400 nM; 1:1 model with mass transport; details: protein: recombinant; (pET-29a; theoretical mass 11.35 kDa); label: biotin on one strand; 18 bp duplex

B1: BS4m2 (C directly after 5'-CGG to G) (dsDNA)
DNA 1: TCTTCGGGAATACGGACT
DNA 2: AGTCCGTATTCCCGAAGA
TerR43-138 [1]
  Kd: 1370 ± 50 nM
TerR35-138 [2]
  Kd: 155 ± 1 nM

B2: BS2 (dsDNA)
DNA 1: TTATCGGACTTTCGGATT
DNA 2: AATCCGAAAGTCCGATAA
TerR35-138 [3]
  Kd: 536 ± 3 nM
TerR43-138 [4]
  Kd: 3730 ± 30 nM

B3: BS2m1 (5'-CGG to CAA) (dsDNA)
DNA 1: TTATCAAACTTTCGGATT
DNA 2: AATCCGAAAGTTTGATAA
TerR35-138 [5]
  Kd: 5780 ± 60 nM

B4: BS3 (dsDNA)
DNA 1: GAGACGGAAACTCGGGTT
DNA 2: AACCCGAGTTTCCGTCTC
TerR35-138 [6]
  Kd: 676 ± 3 nM

B5: BS4m1 (TT before 5'-CGG to GG) (dsDNA)
DNA 1: TGGGCGGCAATACGGACT
DNA 2: AGTCCGTATTGCCGCCCA
TerR43-138 [7]
  Kd: 9300 ± 1000 nM
TerR35-138 [8]
  Kd: 429 ± 2 nM

B6: BS6 (dsDNA)
DNA 1: CTCTCGGAAACTCGGAAA
DNA 2: TTTCCGAGTTTCCGAGAG
TerR35-138 [3]
  Kd: 150 ± 1 nM
TerR43-138 [9]
  Kd: 2050 ± 90 nM

B7: BS4 (dsDNA)
DNA 1: TCTTCGGCAATACGGACT
DNA 2: AGTCCGTATTGCCGAAGA
TerR43-138 [1]
  Kd: 1070 ± 60 nM
TerR35-138 [10]
  Kd: 65.6 ± 0.6 nM

B8: BS7 (dsDNA)
DNA 1: ACTTCGGCTATCCGGTTA
DNA 2: TAACCGGATAGCCGAAGT
TerR35-138 [11]
  Kd: 26.5 ± 0.3 nM
TerR43-138 [12]
  Kd: 591 ± 2 nM

B9: BS5 (dsDNA)
DNA 1: GGGGCGGCTCCTCGGTAC
DNA 2: GTACCGAGGAGCCGCCCC
TerR35-138 [13]
  Kd: 1530 ± 60 nM

B10: BS2m2 (3'-CGG to CAA) (dsDNA)
DNA 1: TTATCGGACTTTCAAATT
DNA 2: AATTTGAAAGTCCGATAA
TerR35-138 [14]
  Kd: 363 ± 2 nM

B11: BS9 (dsDNA)
DNA 1: GCTTCGGTAATTCGGTAA
DNA 2: TTACCGAATTACCGAAGC
TerR35-138 [15]
  Kd: 41 ± 0.4 nM
TerR43-138 [16]
  Kd: 820 ± 4 nM

B12: BS8 (dsDNA)
DNA 1: CGGGCGGTTAGGCGGCAT
DNA 2: ATGCCGCCTAACCGCCCG
TerR43-138 [17]
  Kd: 17200 ± 500 nM
TerR35-138 [18]
  Kd: 286 ± 2 nM

B13: BS7m (second CGG half-site mutated) (dsDNA)
DNA 1: ACTTCGGCTATCCAATTA
DNA 2: TAATTGGATAGCCGAAGT
TerR35-138 [19]
  Kd: 25.3 ± 0.2 nM

B14: BS1 (dsDNA)
DNA 1: GAGTCGGCATTACGGCGG
DNA 2: CCGCCGTAATGCCGACTC
TerR35-138 [20]
  Kd: 527 ± 3 nM
